Test results taken from publication PMC7847548, “Functional Characterization of the γ-Aminobutyric Acid Transporter from Mycobacterium smegmatis MC^2 155 Reveals Sodium-Driven GABA Transport” (Journal of Bacteriology, 2020).

Biological target: the molecule itself
Assay: SEC-MALS; SEC-MALLS, three-detector method; Superose 6 column in 20 mM HEPES pH 7.0, 100 mM NaCl, 5% glycerol, 0.0102% DMNPG; 30 ul of MsGabP at 3 mg/ml injected; protein-detergent complex

B1: γ-aminobutyric acid (GABA) permease GabP from Mycobacterium smegmatis MC^2 155 (natural protein, UniProt A0R5H8 1-473, looked up)
chain: MLESRSDLSSSDEPRSGLARSLKTRHMTMIAIGGAIGAGLFVGSGAVIKTAGPAAIVSYVVAGALVLCTLRMLGEMVVAKPRTGAFADYARIGIGPWAGFTLGWLYWYYYVIIIAVEAVAGAQILAVWVGLPLWLMAMLLMAALTLTNLISVRWFGEFEFWFSGIKVAAIVSFIVVGLLWVFGVWPGDTNGLTNLVAHGGFAPNGFGSIFGAVVVVIFAFGGAEIVTIAAAESAEPAKSVARATTGVIWRIILFYVGSIFLVVCILPWNDASVLSSPYVAALEKLQIPGAGLIMNIVILTAVLSVLNSSIYTSSRMLRVLASHGDAPQWLVRTNTRGVPTRAILASTVVGWVSVVLAYIAPDSLFLFLVNSCGVVAIFMYVMIGVSELRVRRAIEREDPAKLTLKMWFFPYLPIAVIACFVLVLVAMLFDADQRVQLLASVVSLAVVLLAYALRKRHGQVPATDTKQAARTDE
notes: GABA permease GabP, Mycobacterium smegmatis MC^2 155, gene msmeg_6196, amplified from genomic DNA and cloned NheI/SbfI into pL33 (based on pTTQ18); predicted molecular mass 50.7 kDa; pL33 encodes a C-terminal His tag preceded by an HRV-3C protease site; the tag was cleaved on the column, so residues of the cleavage site and of the cloning sites may remain; also called MsGabP; gene product of …
stoichiometry N: 2
